Measured values: patent US20220048967A1 (published 2022)
Where a chain is given by its changes, count along the chain named. Numbered stars: 1 amine (or outer) side, 2 acyl side, 3 side chain; on linkers, the order of the positions; unused ones are H or OH. Square brackets hold non-standard residues; d marks the D form. Side chains are listed from the residue outwards. Ends that are not written are not given here. * marks the point of attachment. C20 diacid = O=C(O)CCCCCCCCCCCCCCCCCCC(=O)*; C18 diacid = O=C(O)CCCCCCCCCCCCCCCCC(=O)*; γGlu = O=C(O)[C@H](CCC(=O)[*:2])N[*:1]; AEEA = NCCOCCOCC(=O)O; Aib = CC(C)(N)C(=O)O

B1: Example 315 (peptide)
peptide: YXEGTFTSDYSILLDKKAQXAFIEYLIEGGPSSGAPPPS
modifications: Aib2, K17 conjugated to (2-[2-(2-Amino-ethoxy)-ethoxy]-acetyl)2-(γ-Glu)-CO-(CH2)16-CO2H, Aib20, C-terminal amide (NH2)
B2: Example 289 (peptide)
peptide: B1 peptide with L13X, A21E, E28A
modifications: Aib2, αMeL13, K17 conjugated to (2-[2-(2-Amino-ethoxy)-ethoxy]-acetyl)2-(γ-Glu)-CO-(CH2)18-CO2H, Aib20, C-terminal amide (NH2)
B3: Example 327 (peptide)
peptide: B1 peptide with Y1F, L13X
modifications: Aib2, αMeL13, K17 conjugated to (2-[2-(2-Amino-ethoxy)-ethoxy]-acetyl)2-(γ-Glu)-CO-(CH2)18-CO2H, Aib20, C-terminal amide (NH2)
B4: Example 300 (peptide)
peptide: YXEGTFTSDYSIXLDKKAQXAFIEYLIEGGPSSG
modifications: Aib2, αMeL13, K17 conjugated to (2-[2-(2-Amino-ethoxy)-ethoxy]-acetyl)2-(γ-Glu)-CO-(CH2)16-CO2H, Aib20, C-terminal amide (NH2)
B5: Example 302 (peptide)
peptide: B4 peptide with F6X, X13L
modifications: Aib2, αMeF(2F)6, K17 conjugated to (2-[2-(2-Amino-ethoxy)-ethoxy]-acetyl)2-(γ-Glu)-CO-(CH2)16-CO2H, Aib20, C-terminal amide (NH2)
B6: Example 303 (peptide)
peptide: B4 peptide with K16E
modifications: Aib2, αMeL13, K17 conjugated to (2-[2-(2-Amino-ethoxy)-ethoxy]-acetyl)2-(γ-Glu)-CO-(CH2)16-CO2H, Aib20, C-terminal amide (NH2)
B7: Example 301 (peptide)
peptide: B4 peptide with F6X, X13L
modifications: Aib2, αMeF6, K17 conjugated to (2-[2-(2-Amino-ethoxy)-ethoxy]-acetyl)2-(γ-Glu)-CO-(CH2)16-CO2H, Aib20, C-terminal amide (NH2)
B8: Example 4 (peptide)
peptide: YXEGTXTSDXSIXLDXKAQXEFIXXLIEGGPSSGAPPPS
modifications: Aib2, αMeF(2F)6, 4Pal10, αMeL13, Orn16, K17 conjugated to (2-[2-(2-Amino-ethoxy)-ethoxy]-acetyl)2-(γ-Glu)-CO-(CH2)16-CO2H, Aib20, D-Glu24, αMeY25, C-terminal amide (NH2)
B9: Example 316 (peptide)
peptide: Y[Aib]EGTFTSDYSILLDKK([AEEA-AEEA-γGlu-C18 diacid])AQ[Aib]AFIEYLIAGGPSSGAPPPS-NH2
modifications: N-terminus assumed
SMILES: CC[C@H](C)[C@H](NC(=O)[C@H](CC(C)C)NC(=O)[C@H](Cc1ccc(O)cc1)NC(=O)[C@H](CCC(=O)O)NC(=O)[C@@H](NC(=O)[C@H](Cc1ccccc1)NC(=O)[C@H](C)NC(=O)C(C)(C)NC(=O)[C@H](CCC(N)=O)NC(=O)[C@H](C)NC(=O)[C@H](CCCCNC(=O)COCCOCCNC(=O)COCCOCCNC(=O)CC[C@H](NC(=O)CCCCCCCCCCCCCCCCC(=O)O)C(=O)O)NC(=O)[C@H](CCCCN)NC(=O)[C@H](CC(=O)O)NC(=O)[C@H](CC(C)C)NC(=O)[C@H](CC(C)C)NC(=O)[C@@H](NC(=O)[C@H](CO)NC(=O)[C@H](Cc1ccc(O)cc1)NC(=O)[C@H](CC(=O)O)NC(=O)[C@H](CO)NC(=O)[C@@H](NC(=O)[C@H](Cc1ccccc1)NC(=O)[C@@H](NC(=O)CNC(=O)[C@H](CCC(=O)O)NC(=O)C(C)(C)NC(=O)[C@@H](N)Cc1ccc(O)cc1)[C@@H](C)O)[C@@H](C)O)[C@@H](C)CC)[C@@H](C)CC)C(=O)N[C@@H](C)C(=O)NCC(=O)NCC(=O)N1CCC[C@H]1C(=O)N[C@@H](CO)C(=O)N[C@@H](CO)C(=O)NCC(=O)N[C@@H](C)C(=O)N1CCC[C@H]1C(=O)N1CCC[C@H]1C(=O)N1CCC[C@H]1C(=O)N[C@@H](CO)C(N)=O
B10: Example 266 (peptide)
peptide: Y[Aib]EGTFTSDYSILLDKK([AEEA-AEEA-γGlu-C18 diacid])AQ[Aib]AFIEYLIEGGPSSG-NH2
modifications: N-terminus assumed
SMILES: CC[C@H](C)[C@H](NC(=O)[C@H](CC(C)C)NC(=O)[C@H](Cc1ccc(O)cc1)NC(=O)[C@H](CCC(=O)O)NC(=O)[C@@H](NC(=O)[C@H](Cc1ccccc1)NC(=O)[C@H](C)NC(=O)C(C)(C)NC(=O)[C@H](CCC(N)=O)NC(=O)[C@H](C)NC(=O)[C@H](CCCCNC(=O)COCCOCCNC(=O)COCCOCCNC(=O)CC[C@H](NC(=O)CCCCCCCCCCCCCCCCC(=O)O)C(=O)O)NC(=O)[C@H](CCCCN)NC(=O)[C@H](CC(=O)O)NC(=O)[C@H](CC(C)C)NC(=O)[C@H](CC(C)C)NC(=O)[C@@H](NC(=O)[C@H](CO)NC(=O)[C@H](Cc1ccc(O)cc1)NC(=O)[C@H](CC(=O)O)NC(=O)[C@H](CO)NC(=O)[C@@H](NC(=O)[C@H](Cc1ccccc1)NC(=O)[C@@H](NC(=O)CNC(=O)[C@H](CCC(=O)O)NC(=O)C(C)(C)NC(=O)[C@@H](N)Cc1ccc(O)cc1)[C@@H](C)O)[C@@H](C)O)[C@@H](C)CC)[C@@H](C)CC)C(=O)N[C@@H](CCC(=O)O)C(=O)NCC(=O)NCC(=O)N1CCC[C@H]1C(=O)N[C@@H](CO)C(=O)N[C@@H](CO)C(=O)NCC(N)=O
B11: Example 267 (peptide)
peptide: Y[Aib]EGTFTSDYSILLDKK([AEEA-AEEA-γGlu-C18 diacid])AQ[Aib]AFIEYLIEGG-NH2
modifications: N-terminus assumed
SMILES: CC[C@H](C)[C@H](NC(=O)[C@H](CC(C)C)NC(=O)[C@H](Cc1ccc(O)cc1)NC(=O)[C@H](CCC(=O)O)NC(=O)[C@@H](NC(=O)[C@H](Cc1ccccc1)NC(=O)[C@H](C)NC(=O)C(C)(C)NC(=O)[C@H](CCC(N)=O)NC(=O)[C@H](C)NC(=O)[C@H](CCCCNC(=O)COCCOCCNC(=O)COCCOCCNC(=O)CC[C@H](NC(=O)CCCCCCCCCCCCCCCCC(=O)O)C(=O)O)NC(=O)[C@H](CCCCN)NC(=O)[C@H](CC(=O)O)NC(=O)[C@H](CC(C)C)NC(=O)[C@H](CC(C)C)NC(=O)[C@@H](NC(=O)[C@H](CO)NC(=O)[C@H](Cc1ccc(O)cc1)NC(=O)[C@H](CC(=O)O)NC(=O)[C@H](CO)NC(=O)[C@@H](NC(=O)[C@H](Cc1ccccc1)NC(=O)[C@@H](NC(=O)CNC(=O)[C@H](CCC(=O)O)NC(=O)C(C)(C)NC(=O)[C@@H](N)Cc1ccc(O)cc1)[C@@H](C)O)[C@@H](C)O)[C@@H](C)CC)[C@@H](C)CC)C(=O)N[C@@H](CCC(=O)O)C(=O)NCC(=O)NCC(N)=O
B12: Example 272 (peptide)
peptide: Y[Aib]EGTFTSDYSILLDKK([AEEA-AEEA-γGlu-C18 diacid])AQ[Aib]AFIEYLIAGGPSSG-NH2
modifications: N-terminus assumed
SMILES: CC[C@H](C)[C@H](NC(=O)[C@H](CC(C)C)NC(=O)[C@H](Cc1ccc(O)cc1)NC(=O)[C@H](CCC(=O)O)NC(=O)[C@@H](NC(=O)[C@H](Cc1ccccc1)NC(=O)[C@H](C)NC(=O)C(C)(C)NC(=O)[C@H](CCC(N)=O)NC(=O)[C@H](C)NC(=O)[C@H](CCCCNC(=O)COCCOCCNC(=O)COCCOCCNC(=O)CC[C@H](NC(=O)CCCCCCCCCCCCCCCCC(=O)O)C(=O)O)NC(=O)[C@H](CCCCN)NC(=O)[C@H](CC(=O)O)NC(=O)[C@H](CC(C)C)NC(=O)[C@H](CC(C)C)NC(=O)[C@@H](NC(=O)[C@H](CO)NC(=O)[C@H](Cc1ccc(O)cc1)NC(=O)[C@H](CC(=O)O)NC(=O)[C@H](CO)NC(=O)[C@@H](NC(=O)[C@H](Cc1ccccc1)NC(=O)[C@@H](NC(=O)CNC(=O)[C@H](CCC(=O)O)NC(=O)C(C)(C)NC(=O)[C@@H](N)Cc1ccc(O)cc1)[C@@H](C)O)[C@@H](C)O)[C@@H](C)CC)[C@@H](C)CC)C(=O)N[C@@H](C)C(=O)NCC(=O)NCC(=O)N1CCC[C@H]1C(=O)N[C@@H](CO)C(=O)N[C@@H](CO)C(=O)NCC(N)=O
B13: Example 288 (peptide)
peptide: Y[Aib]EGTFTSDYSILLDKK([AEEA-AEEA-γGlu-C20 diacid])AQ[Aib]AFIEYLIAGGPSSGAPPPS-NH2
modifications: N-terminus assumed
SMILES: CC[C@H](C)[C@H](NC(=O)[C@H](CC(C)C)NC(=O)[C@H](Cc1ccc(O)cc1)NC(=O)[C@H](CCC(=O)O)NC(=O)[C@@H](NC(=O)[C@H](Cc1ccccc1)NC(=O)[C@H](C)NC(=O)C(C)(C)NC(=O)[C@H](CCC(N)=O)NC(=O)[C@H](C)NC(=O)[C@H](CCCCNC(=O)COCCOCCNC(=O)COCCOCCNC(=O)CC[C@H](NC(=O)CCCCCCCCCCCCCCCCCCC(=O)O)C(=O)O)NC(=O)[C@H](CCCCN)NC(=O)[C@H](CC(=O)O)NC(=O)[C@H](CC(C)C)NC(=O)[C@H](CC(C)C)NC(=O)[C@@H](NC(=O)[C@H](CO)NC(=O)[C@H](Cc1ccc(O)cc1)NC(=O)[C@H](CC(=O)O)NC(=O)[C@H](CO)NC(=O)[C@@H](NC(=O)[C@H](Cc1ccccc1)NC(=O)[C@@H](NC(=O)CNC(=O)[C@H](CCC(=O)O)NC(=O)C(C)(C)NC(=O)[C@@H](N)Cc1ccc(O)cc1)[C@@H](C)O)[C@@H](C)O)[C@@H](C)CC)[C@@H](C)CC)C(=O)N[C@@H](C)C(=O)NCC(=O)NCC(=O)N1CCC[C@H]1C(=O)N[C@@H](CO)C(=O)N[C@@H](CO)C(=O)NCC(=O)N[C@@H](C)C(=O)N1CCC[C@H]1C(=O)N1CCC[C@H]1C(=O)N1CCC[C@H]1C(=O)N[C@@H](CO)C(N)=O

Tests used:
[1] = target: Pro-Link-tagged Human GLP-1R (human, UniProt P43220 24-463); assay: cell-based or functional assay
[2] = target: human GLP-1 receptor (human, UniProt P43220 24-463); assay: cell-based or functional assay

| Binder | hGLP1R B-Arrestin2 % Top [1] [%] | hGLP1R B-Arrestin2 Rel EC50 [1] [nM] | hGLP1R GTPgS % Top [2] [%] | hGLP1R GTPgS Rel EC50 [2] [nM] |
| --- | --- | --- | --- | --- |
| B1 | 25.4 | 19.9 | 44.2 | 0.601 |
| B2 | 51.3 | 12.4 | 83.7 | 0.404 |
| B3 | 41.6 | 3.79 | 75.6 | 0.287 |
| B4 | 38.4 | 5.4 | 85.6 | 0.405 |
| B5 | 98.4 | 2.19 | 98.6 | 0.268 |
| B6 | 47.7 | 17.9 | 74.3 | 0.547 |
| B7 | 93.7 | 2.67 | 91.4 | 0.435 |
| B8 | 92.4 | 4.8 | 86.9 | 0.245 |
| B9 | 26.1 | 6.08 | 56.7 | 0.766 |
| B10 | 17.1 | 16 | 63.4 | 0.865 |
| B11 | 16.5 | 9.01 | 62.3 | 0.867 |
| B12 |  | > 12000 | 66.5 | 0.651 |
| B13 | 21.3 | 6.74 | 66.7 | 0.666 |
